Assay results taken from PMC10853069.

Legend:
[1] = target: Taxol-stabilized microtubules polymerized from purified porcine tubulin (porcine) (UniProt P02550); assay: cross-linking
[2] = target: Taxol-stabilized microtubules polymerized from purified porcine tubulin (porcine) (UniProt P02550); assay: co-sedimentation

Substance | MEI-2*tubulin crosslinked band, percent of the WT fragment [1] [%] | Kd [2] [µM] | MEI-2*tubulin crosslinked band, percent of WT [1] [%]
MBP-MEI-2 1–90 K77A-K78A (from UniProt O44740 1-90) (domain or fragment) | 84 | – | –
MBP-MEI-2 1–90 K77D-K78D (from UniProt O44740 1-90) (domain or fragment) | 87 | – | –
MBP-MEI-2 full length 6KA (K8A-K9A K77A-K78A K274A-K275A) (from UniProt O44740 1-280) (natural protein) | – | 3.68 | 53
MBP-MEI-2 full length 6KD (K8D-K9D K77D-K78D K274D-K275D) (from UniProt O44740 1-280) (natural protein) | – | 6.15 | 6
